Test results as given in publication PMC9163089.

Assays:
[1] = molecular target: Cytosolic domain of YscV (YscVC, residues 356-704), co-expressed with YscX and YscY (Yersinia enterocolitica); test: SEC
[2] = molecular target: Cytosolic domain of YscV (YscVC, residues 356-704), co-expressed with YscX and YscY (Yersinia enterocolitica); test: crystal structure
[3] = molecular target: Cytosolic domain of YscV (YscVC, residues 356-704), purified alone (Yersinia enterocolitica); test: SEC; analytical SEC of YscVC alone at 10, 25 and 100 µM initial concentration, Superdex 200 10/300GL, 20 mM Tris pH 8, 150 mM NaCl; monomer to nonamer

With “Cytosolic domain of YscV (YscVC, residues 356-704), co-expressed with YscX and YscY (domain or fragment)” as the substance, how does the stoichiometry N [1] read?
The stoichiometry N was 9.

And the stoichiometry N [2]?
The stoichiometry N was 9.

Which stoichiometry N [3] does the source give for “Cytosolic domain of YscV (YscVC, residues 356-704), purified alone (domain or fragment)” here?
The stoichiometry N was 9.
